The target of data set [1] is endogenous pro-Monalysin (Pseudomonas entomophila (endogenous in strain L48)) (UniProt Q1I8U1). Nature of the data set: high-speed atomic force microscopy; on mica surface in low salt buffer (30 mM NaCl, 10 mM sodium phosphate, pH 7.0), strongly immobilised.
The target is the same in data set [2]. Nature of the data set: high-speed atomic force microscopy; on mica surface in PBS buffer, room temperature (24-26°C).
Data set [3] deals with the molecule itself. Nature of the data set: MALDI-TOF MS; active-Monalysin mixed with sinapic acid matrix; molecular weight of the multimer.
Data set [4] concerns the molecule itself. Nature of the data set: high-speed atomic force microscopy; on mica surface in low salt buffer (30 mM NaCl, 10 mM sodium phosphate, pH 7.0), strongly immobilised.

The source of these data is article PMC7118224, “Molecular and Functional Analysis of Pore-Forming Toxin Monalysin From Entomopathogenic Bacterium Pseudomonas entomophila” (Frontiers in Immunology, 2020).

Turning to “endogenous pro-Monalysin (from UniProt Q1I8U1 1-271) (natural protein)”, the values for the stoichiometry N in data set [1] and in data set [2] were 8 and 16, respectively.

B1: active-Monalysin (trypsin-treated endogenous pro-Monalysin) (natural protein, UniProt Q1I8U1 34-271, looked up)
chain: NLSGRFDQYPTKKGDFAIDGYLLDYSSPKQGCWVDGITVYGDIYIGKQNWGTYTRPVFAYLQYVETISIPQNVTTTLSYQLTKGHTRSFETSVNAKYSVGANIDIVNVGSEISTGFTRSESWSTTQSFTDTTEMKGPGTFVIYQVVLVYAHNATSAGRQNANAFAYSKTQAVGSRVDLYYLSAITQRKRVIVPSSNAVTPLDWDTVQRNVLMENYNPGSNSGHFSFDWSAYNDPHRRY
notes: Monalysin of Pseudomonas entomophila, product of trypsin cleavage of the pro-form; monomer of 27 kDa on SDS-PAGE; also called active-form; cleaved mature form; source: purified pro-Monalysin from P. entomophila L48, treated with trypsin (0.2 mg/mL, 25°C, 10 min)
For the molecule B1, the “stoichiometry N” value in data set [3] was ~8; in data set [4], 8.
